Molecular target: MBP-RAB23T22N (Chlamydomonas reinhardtii)
Assay: SEC

RAB18S22N (bacterially expressed, 6×His-tag removed) (natural protein)
stoichiometry N: 1

Source: doi:10.1101/2025.02.20.639385
